Reference: patent publication US20260209362A1 (VIB VZW, published 2026)
Numbering of substitutions follows the chain as printed.

T1: mouse IL-12Rβ2 expressed on cells (mouse, UniProt P97378 24-874)
T1 construct: HEK293T cells, stably transduced (cDNA NM_008354); also called mIL-12RB2
T1 sequence: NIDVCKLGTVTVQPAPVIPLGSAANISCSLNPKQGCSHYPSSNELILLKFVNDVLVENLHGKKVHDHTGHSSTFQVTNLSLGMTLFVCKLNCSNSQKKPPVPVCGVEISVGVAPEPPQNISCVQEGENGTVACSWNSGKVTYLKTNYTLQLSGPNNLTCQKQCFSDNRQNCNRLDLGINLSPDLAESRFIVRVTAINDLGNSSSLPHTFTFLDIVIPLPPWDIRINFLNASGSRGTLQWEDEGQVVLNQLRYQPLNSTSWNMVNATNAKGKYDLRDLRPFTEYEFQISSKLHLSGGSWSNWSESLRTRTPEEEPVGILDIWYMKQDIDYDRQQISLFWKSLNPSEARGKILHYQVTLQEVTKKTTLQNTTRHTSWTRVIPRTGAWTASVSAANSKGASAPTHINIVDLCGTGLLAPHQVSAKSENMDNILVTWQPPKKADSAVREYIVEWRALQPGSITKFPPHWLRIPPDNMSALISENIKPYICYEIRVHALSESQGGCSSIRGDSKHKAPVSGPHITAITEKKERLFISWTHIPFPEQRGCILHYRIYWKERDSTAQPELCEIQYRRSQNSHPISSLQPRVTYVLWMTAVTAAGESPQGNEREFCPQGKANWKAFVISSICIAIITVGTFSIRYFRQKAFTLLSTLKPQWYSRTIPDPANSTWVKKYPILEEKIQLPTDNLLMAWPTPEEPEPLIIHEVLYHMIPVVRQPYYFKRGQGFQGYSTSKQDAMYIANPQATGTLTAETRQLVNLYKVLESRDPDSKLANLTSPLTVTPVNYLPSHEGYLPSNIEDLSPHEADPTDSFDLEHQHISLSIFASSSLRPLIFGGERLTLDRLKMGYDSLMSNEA

T2: biotinylated recombinant mouse IL-12Rβ2 (mouse, UniProt P97378 24-637, random biotinylated)
T2 construct: Recombinant protein produced in-house, biotinylated; also called mIL-12RB2; mouse IL-12RB2
T2 sequence: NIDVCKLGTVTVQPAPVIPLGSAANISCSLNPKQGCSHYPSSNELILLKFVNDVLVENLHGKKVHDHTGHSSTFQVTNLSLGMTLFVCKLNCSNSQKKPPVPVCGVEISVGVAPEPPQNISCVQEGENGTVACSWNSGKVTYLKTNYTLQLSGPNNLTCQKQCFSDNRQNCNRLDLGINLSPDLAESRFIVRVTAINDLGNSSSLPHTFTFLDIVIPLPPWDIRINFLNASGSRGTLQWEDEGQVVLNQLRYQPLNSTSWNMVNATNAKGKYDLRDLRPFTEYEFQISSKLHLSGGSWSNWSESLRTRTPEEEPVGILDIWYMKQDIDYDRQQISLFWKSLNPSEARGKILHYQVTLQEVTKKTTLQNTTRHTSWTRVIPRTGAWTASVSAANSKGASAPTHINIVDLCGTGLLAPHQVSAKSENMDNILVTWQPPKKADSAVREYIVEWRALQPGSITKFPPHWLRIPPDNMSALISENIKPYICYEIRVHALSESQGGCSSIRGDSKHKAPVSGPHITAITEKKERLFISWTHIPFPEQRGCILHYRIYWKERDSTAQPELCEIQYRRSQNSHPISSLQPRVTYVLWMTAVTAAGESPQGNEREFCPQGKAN

T3: biotinylated recombinant human IL-12Rβ2 (human, UniProt Q99665 24-622, random biotinylated)
T3 construct: Recombinant protein produced in-house, biotinylated; also called hIL-12RB2; human IL-12RB2
T3 sequence: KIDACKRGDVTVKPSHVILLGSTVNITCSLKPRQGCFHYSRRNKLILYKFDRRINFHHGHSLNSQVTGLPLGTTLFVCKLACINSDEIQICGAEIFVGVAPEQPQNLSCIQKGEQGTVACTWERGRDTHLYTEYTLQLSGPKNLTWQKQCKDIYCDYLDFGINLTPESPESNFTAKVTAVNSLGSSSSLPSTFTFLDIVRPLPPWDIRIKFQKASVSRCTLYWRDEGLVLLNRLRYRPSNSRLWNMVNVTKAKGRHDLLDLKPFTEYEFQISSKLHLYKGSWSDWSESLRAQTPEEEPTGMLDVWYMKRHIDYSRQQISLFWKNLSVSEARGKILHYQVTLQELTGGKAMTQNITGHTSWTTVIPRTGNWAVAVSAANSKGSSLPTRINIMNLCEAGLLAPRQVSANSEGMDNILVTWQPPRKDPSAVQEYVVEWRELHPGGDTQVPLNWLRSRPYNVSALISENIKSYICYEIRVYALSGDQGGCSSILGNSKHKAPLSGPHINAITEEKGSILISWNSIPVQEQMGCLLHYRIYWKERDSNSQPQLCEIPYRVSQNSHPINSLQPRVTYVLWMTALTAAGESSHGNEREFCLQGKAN

B1: anti-IL-12Rβ2 VHH clone 2CAM39 (VHH, not shown: small tags and cut ends)
VHH: QVQLQESGGGLVQAGGSLRLSCAASGRTFSTYAMGWFRQAPGKEREFVAAISWSGGSTYYADSVKGRFTISRDNAKNTGYLQMNSLKPEDTAVYVCAADAEDPILYGSSWNNRRKEYDYWGQGTQVTVSS
notes: tested as periplasmic extract; also called 20482
B2: anti-IL-12Rβ2 VHH clone 2CAM67 (VHH, not shown: small tags and cut ends)
VHH: QVQLQESGGGEVQAGGSLRLSCVASGRTFSVYTTGWFRQAPGKEREFVAGMSGTRTYYADSVKGRFTISRDNAKNTVYLQMNSLKPDDTAVYYCAERRYGGPSLVWDEYDYRGQGTQVTVSS
notes: tested as periplasmic extract; also called 20494
B3: anti-IL-12Rβ2 VHH clone 3CRH83 (VHH, not shown: small tags and cut ends)
VHH: QVQLQESGGGLVQAGGSLKLSCAASGNTFSINAMAWYRQAPGQELELVAAISDVGNTIYADSMKGRFTISRGNADNTVYLQMNSLKPEDTATYYCNAGTFYTSPGDSYYRGYDFWGQGTQVTVSS
notes: tested as periplasmic extract
B4: anti-IL-12Rβ2 VHH clone 2CAM45 (VHH, not shown: small tags and cut ends)
VHH: QVQLQESGGGLVQAGGSLRLSCAASGFTFDDYAIGWFRQAPGKEREGISCISSSDYGTYYAGSVKGRFTISSDNAKNTVYLQMNSLKPEDTAVYYCAAEAISEYDCLGINYGMDYWGKGTQVTVSS
notes: tested as periplasmic extract; also called 20485
B5: anti-IL-12Rβ2 VHH clone 2CRM42 (VHH, not shown: small tags and cut ends)
VHH: QVQLQESGGGLVQPGESLRLSCQASGRTFSNYRMGWFRQAPGKEREFVAGINWDGGHTYYTDSVKGRFTISRDNAKNTVYLQMNSLKPEDTAVYQCAVRVREYGSSRYEDQFDYWGQGTQVTVSS
notes: tested as periplasmic extract; also called 20449
B6: anti-IL-12Rβ2 VHH clone 2CAM18 (VHH)
VHH: QVQLQESGGGLVQVGDSLKLSCVASGTTFSTHVMAWYRQAPGKQREWVASIDSAGTTNYKDAVKGRFTISRDNVKRTVYLQMNNLKPEDSAVYLCSIPSRNAWGQGTQVTVSS
notes: tested as periplasmic extract; also called 20475
B7: anti-IL-12Rβ2 VHH clone 2CRM40 (VHH, not shown: small tags and cut ends)
VHH: QVQLQESGGGLVQTGGSLRLSCAASGRTYAMAWFRQAPGKEREFAAVIIGGDRTYYANSVKDRFTISRDNAKETVYLQMNNLKPEDTAVYYCAANRRLYNSGRGYSQSEYEYWGQGTQVTVSS
notes: tested as periplasmic extract; also called 20448
B8: anti-IL-12Rβ2 VHH clone 2CRM83 (VHH, not shown: small tags and cut ends)
VHH: QVQLQESGGGLVQPGGSLRLSCAASGFTFSAYAMSWVRQAPGKGLEWVSSISSTGTNPNYADSVKGRFTISRDNAKNTLYLQMNSLKPEDTAVYYCAEAYRNYSPPGQGTQVTVSS
notes: tested as periplasmic extract; also called 20451
B9: anti-IL-12Rβ2 VHH clone 3CRM45 (VHH, not shown: small tags and cut ends)
VHH: QVQLQESGGGLVQAGGSLRLSCTASGSIFAIDDMYWYRQAPGKEREFVAYITATNSANYLDSVNGRFTISRDNAKNSVYLQMNSLKPEDTAVYYCNAKQIVGFQIDEYWGQGTQVTVSS
notes: tested as periplasmic extract; also called 20458
B10: anti-IL-12Rβ2 VHH clone 3CRM95 (VHH, not shown: small tags and cut ends)
VHH: QVQLQESGGGLVQAGDFLRLSCVFSGGTFGDYSMGWFRQAPGKEREFVAAIRWSGDSTQYAEAVKGRFTISRDNAKSTVYLQMSSLKPEDTAVYYCAADPSYYIGPNHTPSRYRDWGQGTQVTVSS
notes: tested as periplasmic extract; also called 20465
B11: anti-IL-12Rβ2 VHH clone 2CAM62 (VHH, not shown: small tags and cut ends)
VHH: QVQLQESGGGLVQAEGSLRLSCVASGRTFSSYGMGWFRQAPGKEREFVTGISSAGSWIGDITSYADSVKGRFTISRDNAKNILYLQMNSLKPEDTAVYYCAAAYHGSRYYVGSTANEYTTWGQGTQVTVSS
notes: tested as periplasmic extract; also called 20493
B12: anti-IL-12Rβ2 VHH clone 2CRM28 (VHH, not shown: small tags and cut ends)
VHH: QVQLQESGGGLVQPGGSLRLSCAASGRAWNEYNMGWFRQAPGKEREFVALIWWSSGNTYYADSVKGRFTISRDKVKNTVYLQMNSLKPEDTAVYYCAAGPTFNKYEYWGQGTQVTVSS
notes: tested as periplasmic extract
B13: anti-IL-12Rβ2 VHH clone 20533 (VHH, not shown: small tags and cut ends)
VHH: QVQLQESGGGLVQAGGSLTLSCTASGRTFSSYTTGWFRQAPGKEREFVAGISSGGSWIGDITSYADSVKGRFTISRDNAKNMIYLQMNSLKPDDTGVYYCAAASYGTRYYVGSTANEYTTWGQGTQVTVSS
notes: tested as periplasmic extract; also called 2CAMS26
B14: anti-IL-12Rβ2 VHH clone 20506 (VHH, not shown: small tags and cut ends)
VHH: QVQLQESGGGLVQVGGSLRLSCAPSGRTFSTYAMGWFRQALGKEREVVATISWSGGRIYYTDSVKGRFTISRDNAKNTAYLQMNSLRPDDADVYYCATRGTDYGAWEYWGQGTQVTVSS
notes: tested as periplasmic extract; also called 3CAM6
B15: anti-IL-12Rβ2 VHH clone 20473 (VHH, not shown: small tags and cut ends)
VHH: QVQLQESGGGLVQAGDSLRLSCAASGRTFSSYTMGWFRQAPGKEREFVARISQDGGSTYYADSMKGRFTVARDNAKNTVYLQMNSLKPEDTAVYYCAADMIKWGLRVGVDSFKYWGQGTQVTVSS
notes: tested as periplasmic extract; also called 2CAM14
B16: anti-IL-12Rβ2 VHH clone 20467 (VHH, not shown: small tags and cut ends)
VHH: QVQLQESGGGLVQAGGSLRLSCAPSGRTFSTLAMAWFRQAPGKEREVVATISWSGGRTYYADSVKGRFTISRDNAKNTAYLQMNSLRPDDTAVYYCAARGSDYGSYDYWGQGTQVTVSS
notes: tested as periplasmic extract; also called 2CAM3
B17: anti-IL-12Rβ2 VHH clone 20486 (VHH, not shown: small tags and cut ends)
VHH: B16 VHH with Y80F, G100E
notes: tested as periplasmic extract; also called 2CAM46
B18: anti-IL-12Rβ2 VHH clone 20512 (VHH, not shown: small tags and cut ends)
VHH: B16 VHH with A23T, A35G, D62S, G66S, S101T, S105A
notes: tested as periplasmic extract; also called 3CAM57
B19: anti-IL-12Rβ2 VHH clone 20489 (VHH, not shown: small tags and cut ends)
VHH: B16 VHH with A14P, S17P, Y80F, G100E
notes: tested as periplasmic extract; also called 2CAM50
B20: anti-IL-12Rβ2 VHH clone 20477 (VHH, not shown: small tags and cut ends)
VHH: B14 VHH with V14A, A91T, D92A, T98A
notes: tested as periplasmic extract; also called 2CAM27
B21: anti-IL-12Rβ2 VHH clone 20555 (VHH, not shown: small tags and cut ends)
VHH: B16 VHH with A35G, D73N, S85N, G100E, S101T, S105A
notes: tested as periplasmic extract; also called 3CAMS81

Molecular target: T1, mouse IL-12Rβ2 expressed on cells
Assay: flow cytometry, P.E. VHH on HEK293T cells stably expressing mIL-12RB2

| % cells bound [%] | dMFI | Binder |
| --- | --- | --- |
| 48.7 | 255 | B1 |
| 13.5 | 90 | B2 |
| 3.47 | 21 | B3 |
| 6.77 | 51 | B4 |
| 2.93 | 22 | B5 |
| 3.19 | 13.6 | B6 |
| 32.8 | 166 | B7 |
| 24.9 | 122 | B8 |
| 18.3 | 110 | B9 |
| 6.74 | 51 | B10 |
| 11.2 | 70 | B11 |
| 19.5 | 100 | B12 |

Molecular target: T2, biotinylated recombinant mouse IL-12Rβ2
Assay: ELISA, periplasmic extract on biotinylated mIL-12Rβ2, signal over control wells

| ELISA binding mIL-12RB2/control [ratio] | Binder |
| --- | --- |
| 3.96 | B13 |
| 19.9 | B14 |
| 36.3 | B15 |
| 14.2 | B16 |
| 6.85 | B17 |
| 47.4 | B18 |
| 7.88 | B19 |
| 20.9 | B20 |
| 9.41 | B21 |

Molecular target: T3, biotinylated recombinant human IL-12Rβ2
Assay: ELISA, periplasmic extract on biotinylated hIL-12Rβ2, signal over control wells

| ELISA binding hIL-12RB2/control [ratio] | Binder |
| --- | --- |
| 0.994 | B13 |
| 0.97 | B14 |
| 0.971 | B15 |
| 1.04 | B16 |
| 0.973 | B17 |
| 1.31 | B18 |
| 0.995 | B19 |
| 1.02 | B20 |
| 1.06 | B21 |
